Measurements: article PMC6312923 (Life Science Alliance, 2018)

Legend:
recombinant PCNA = target: T1, recombinant PCNA (Homo sapiens, UniProt P12004); assay: FP assay, direct binding of TAMRA-labelled PIP box peptides to PCNA
T1 construct: made in house; host or cells: Escherichia coli BL21 (DE3)

PCNA = assay: X-ray crystal structure of PCNA/PIP peptide complexes; format: binding, human; settings: PCNA trimer; Cdt2 3.5 Å (6QC0), Cdt1 3.4 Å (6QCG)
Description: The protein solution at 17 mg·ml^−1 was pre-incubated with an equimolar amount of peptide, and 0.1 μl of this solution was mixed with 0.1 μl of reservoir solution and equilibrated against a 30 μl reservoir. Crystals for the Cdt2 complex were obtained in 10% (wt/vol) PEG 6000 and 100 mM MES/HCl, pH 6.0. Crystals for the Cdt1 complex were obtained in 15% (wt/vol) PEG 400, 100 mM calcium acetate, and 100 mM MES/HCl, pH 6.0. Crystals appeared at 4°C within 72 h. Crystals were briefly transferred to a cryo-protectant solution containing the reservoir solution and 25% (wt/vol) PEG200 and vitrified by dipping in liquid nitrogen.
X-ray data were collected on beamline ID29 at the European Synchrotron Radiation Facility. The images were integrated with XDS ([Kabsch, 2010]) and merged and scaled with AIMLESS ([Evans, 2011]). […] The models were built using COOT ([Emsley et al, 2010]) and refined with REFMAC ([Murshudov et al, 2011]) in iterative cycles. Model re-building and refinement parameter adjustment were performed in PDB-REDO ([Joosten et al, 2014]); homology-based hydrogen bond restraints ([van Beusekom et al, 2018]) were used at some stages of the procedure. The quality of the models was evaluated by MOLPROBITY ([Chen et al, 2010]). […]

[1] = target: T2, PCNA (recombinant, for the in vitro binding assays; free or loaded on DNA) (human, UniProt P12004 1-261); assay: pull-down; PCNA loaded by RFC (2 mM ATP, 37°C, 1 h) on nicked circular DNA beads, washed; beads incubated with purified Cdt1-3FLAG or CRL4^Cdt2 alone at 4°C for 1 h in HBS buffer (10 mM Hepes pH 7.4, 10 mM MgCl2, 0.2 mM EDTA, 0.05% Tween 20, 0.15 M NaCl); bound proteins by Western blot; settings: both partners purified
T2 construct: PCNA, human, purified essentially as a trimer as described (Fukuda et al, 1995); also called free PCNA; PCNA^(on DNA); source: E. coli Rosetta(DE3) transformed with pT7-PCNA, purified (Resource Q, Superdex 200, Mono Q)
T2 sequence (P12004 whole entry): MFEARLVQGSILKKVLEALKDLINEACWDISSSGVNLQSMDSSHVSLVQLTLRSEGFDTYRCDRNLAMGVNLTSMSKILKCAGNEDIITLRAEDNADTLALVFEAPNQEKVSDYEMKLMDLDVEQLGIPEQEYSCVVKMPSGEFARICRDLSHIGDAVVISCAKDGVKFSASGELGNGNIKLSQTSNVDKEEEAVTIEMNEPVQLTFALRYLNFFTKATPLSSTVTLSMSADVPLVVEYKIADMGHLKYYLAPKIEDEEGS

[2] = tested on: UV-C–damaged sites in MCF7 cells; assay: FRAP of GFP-tagged proteins at sites of local UV-C damage in MCF7 cells; format: cell-based, human; settings: GFP-tagged, UV-C 50 J/m^2
free PCNA = assay: Binding of free PCNA to Cdt1 or CRL4^Cdt2 on anti-FLAG beads; parameters: species or system human; settings: 2 h at 4°C, Western blotting, three independent experiments
Excerpt: FLAG-tagged Cdt1 (Cdt1-3FLAG) and CRL4^Cdt2 (Cdt2-3FLAG) were expressed in insect cells and purified on anti-FLAG resin (Fig 5A).

[3] = tested on: PCNA loaded on nicked circular DNA (PCNA^on DNA); assay: Binding of purified Cdt1 and CRL4^Cdt2 to PCNA loaded on ncDNA beads; parameters: species or system human; settings: RFC +, 4°C 1 h, n = 3 or n > 3
Description: In our in vitro conditions, three molecules of PCNA trimer were loaded on one plasmid DNA. […] The interaction was not mediated by RFC proteins bound on ncDNA (Fig 5D, lane 6).
Figure S5. […] The beads were then incubated with Cdt1 or CRL4^Cdt2 (Step 2; binding). (B) RFC-dependent loading of PCNA.
Closed circular (cc) DNA beads were prepared as described ([Higashi et al, 2012]). Briefly, single-stranded DNA templates prepared using pBluescript II KS(−) were annealed with a biotinated oligonucleotide primer (5′-[…] [biotin-dT][…]-3′). After second-strand synthesis and ligation, covalently cc double-stranded DNA was purified by CsCl/EtBr density gradient centrifugation, incubated with streptavidin, and bound to biotin-sepharose beads to produce the cc DNA beads (around 100 ng per 1 μl bed volume of beads). A single nick was introduced by Nb.BbvCI (New England Biolabs) treatment to produce the ncDNA beads. As control beads, biotin-sepharose beads were incubated with streptavidin alone (sa-beads).
The sa-beads were treated in the same way and used as control beads. The beads were incubated with Cdt1 or CRL4^Cdt2 alone at 4°C for 1 h and washed with HBS buffer. The bound proteins were analysed on Western blotting. […] The purified nc DNA was run on 0.8% agarose gel in 1× TBE (Tris-borate-EDTA) buffer and detected with ethidium bromide.

T1 sequence (P12004 whole entry): as above

MEQRRVTDFFARRR [Cdt1^PIP, Cdt1 PIP box peptide (1–14)]
relative affinity for PCNA, Cdt2^PIP versus Cdt1^PIP (recombinant PCNA): two orders of magnitude weaker | binding stoichiometry in crystal (PCNA): one peptide bound per monomer

B1: Cdt1-3FLAG (natural protein, human, UniProt Q9H211 1-546, looked up)
chain: MEQRRVTDFFARRRPGPPRIAPPKLACRTPSPARPALRAPASATSGSRKRARPPAAPGRDQARPPARRRLRLSVDEVSSPSTPEAPDIPACPSPGQKIKKSTPAAGQPPHLTSAQDQDTISELASCLQRARELGARVRALKASAQDAGESCTPEAEGRPEEPCGEKAPAYQRFHALAQPGLPGLVLPYKYQVLAEMFRSMDTIVGMLHNRSETPTFAKVQRGVQDMMRRRFEECNVGQIKTVYPASYRFRQERSVPTFKDGTRRSDYQLTIEPLLEQEADGAAPQLTASRLLQRRQIFSQKLVEHVKEHHKAFLASLSPAMVVPEDQLTRWHPRFNVDEVPDIEPAALPQPPATEKLTTAQEVLARARNLISPRMEKALSQLALRSAAPSSPGSPRPALPATPPATPPAASPSALKGVSQDLLERIRAKEAQKQLAQMTRCPEQEQRLQRLERLPELARVLRSVFVSERKPALSMEVACARMVGSCCTIMSPGEMEKHLLLLSELLPDWLSLHRIRTDTYVKLDKAADLAHITARLAHQTRAEEGL
notes: Cdt1, human; also called FLAG-tagged Cdt1; Cdt1-3FLAG (WT); source: Sf21 insect cells (baculovirus), purified (DEAE flowthrough, anti-FLAG resin, 3× FLAG peptide elution); not shown: 3FLAG, C-terminal, kept
stoichiometry N [1]: 2.04 Cdt1 molecules on one PCNA trimer

B2: Cdt1: DNA replication licensing factor, FLAG-tagged, purified from insect cells; GFP-tagged in FRAP (protein, UniProt Q9H211 1-546, looked up)
DNA replication factor Cdt1: MEQRRVTDFFARRRPGPPRIAPPKLACRTPSPARPALRAPASATSGSRKRARPPAAPGRDQARPPARRRLRLSVDEVSSPSTPEAPDIPACPSPGQKIKKSTPAAGQPPHLTSAQDQDTISELASCLQRARELGARVRALKASAQDAGESCTPEAEGRPEEPCGEKAPAYQRFHALAQPGLPGLVLPYKYQVLAEMFRSMDTIVGMLHNRSETPTFAKVQRGVQDMMRRRFEECNVGQIKTVYPASYRFRQERSVPTFKDGTRRSDYQLTIEPLLEQEADGAAPQLTASRLLQRRQIFSQKLVEHVKEHHKAFLASLSPAMVVPEDQLTRWHPRFNVDEVPDIEPAALPQPPATEKLTTAQEVLARARNLISPRMEKALSQLALRSAAPSSPGSPRPALPATPPATPPAASPSALKGVSQDLLERIRAKEAQKQLAQMTRCPEQEQRLQRLERLPELARVLRSVFVSERKPALSMEVACARMVGSCCTIMSPGEMEKHLLLLSELLPDWLSLHRIRTDTYVKLDKAADLAHITARLAHQTRAEEGL
modifications: FLAG or eGFP tag
notes: DNA replication licensing factor, FLAG-tagged, purified from insect cells; GFP-tagged in FRAP
FRAP behaviour at UV-C–damaged sites [2]: dynamic interactions | binding of free PCNA to protein beads (free PCNA): PCNA was detected | bound protein [3]: 301 fmol
